Laboratory results as given in the supplement of paper PMC12042874.
± gives the uncertainty stated by the source.

Assay: amyloid nucleation score (Sup35N fusion, yeast selection) (log enrichment); library NNK1; higher = more nucleation; inactive = no reads after selection
Outline: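 Peptides of 20 random codons, each fused to Sup35N, were expressed in psi-negative yeast. Cells were induced with 100 μM copper sulfate for 24 hours and grown 7 days at 30°C on medium lacking adenine and uracil, and plasmid inserts before and after selection were Illumina-sequenced. Nucleation scores are DiMSum log enrichments of output over input reads, centred on the mode score of non-aggregating sequences, and sequences under 100 input reads were excluded.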

| Substance | amyloid nucleation score |
| --- | --- |
| FAWVDPGFLWDNLTPGTDRC | 0.253 ± 0.43 |
| REWSSYRIVRWYEMCYISTS | -0.158 ± 0.84 |
| GCSTYMVLMVGLGGGMLGGF | 1.32 ± 0.26 |
| YRPNLLNSLTPTKTSIGSVY | 1.11 ± 0.6 |
| RRYCDTTVFHGYSVSCRAYG | -0.842 ± 0.74 |
| SNFKK | -1.06 ± 0.64 |
| SRPSQCYINAFMFSMFKSGN | inactive |
| SITLS | -0.926 ± 1.8 |
| RLNNLWKFDEVLLGSSNRTR | -1.24 ± 0.44 |
| LSEEWTIYKFNRRRMKIGRG | 0.707 ± 0.4 |
| KRRYYCFGAMVY | 0.203 ± 0.38 |
| KYKRSYTLDHVFYMSSPGVR | 0.824 ± 0.73 |
| PTSLLLGINYCLFWSIYLRD | 1.81 ± 0.16 |
| RPLRCWAIHYGQVYDSSAIL | 0.987 ± 0.62 |
| TGLPFYEEIMRTPHM | -0.766 ± 0.5 |
| VVRTH | inactive |
| MDLAYMFKLCIGVESM | inactive |
| GSNTFI | 0.243 ± 0.31 |
| IKEFLKACNHHEPMPGNLMR | -0.005 ± 0.54 |
| IRCDKLISNSNMLGDKLTL | inactive |
| DHNLWFDNAFMSLCCCMNMI | 3.42 ± 0.19 |
| HYEVYAARVPNHHAKDIFWV | -0.024 ± 0.93 |
| FGCNELNR | 0.826 ± 0.5 |
| CMMSNRTCQAQLVMMWEMW | inactive |
| QVSANSKNKSVVLFQIKSNE | -0.17 ± 0.4 |

| Substance | amyloid nucleation score |
| --- | --- |
| KNRQLTRLFYTWELRTGTVG | -0.227 ± 0.61 |
| FMASTRRFPLSLMRRAHVYL | -0.182 ± 1.3 |
| QWGRMPMFLIDRTGGWASMG | 0.409 ± 0.32 |
| TLDWLMSIFLILVSLAFNGL | -0.14 ± 0.33 |
| STVAGRWNYCSVTLLCVGFF | 1.45 ± 0.31 |
| LAQELGR | 1.68 ± 0.73 |
| HLNNCLTRRNWTRYFSRVAP | 0.95 ± 0.58 |
| GRWWRLLLYCLVAVLAFVGF | 1.33 ± 0.6 |
| RELNSRPVFYLLGMDQSIGA | 4.43 ± 0.14 |
| IFFCWTMFRS | 1.28 ± 0.21 |
| ISLTDRVSGNRAVYHCSYAS | -1.01 ± 1.4 |
| IRNSEKLNRGCGCGVMHVSV | 0.239 ± 0.49 |
| PQRRGHIRIDRILSSTWTVA | 0.197 ± 0.39 |
| IILCNRPMSYLRYNGARFLA | 0.948 ± 0.36 |
| VNQDAGDMKSVRKRAMTRLC | 1.06 ± 0.56 |
| GILFDLICIDLCFIGVLLKM | -0.406 ± 0.44 |
| NYYDSRFGLHIVLELWVARL | 0.431 ± 0.2 |
| NGWTFYCSCSWCGI | 8.306 ± 0.049 |
| IVDYVGCLRHYECYGWQPWG | 0.225 ± 0.51 |
| PIMWCWHAVMSLS | inactive |
| LALPIFAFER | -0.839 ± 0.46 |
| IGWNFAFVSGILVW | inactive |
| QAKGLALLCV | -2.17 ± 2.7 |
| TCCRRVLSMEQQDTLVYWQY | -0.585 ± 1.7 |
| HLWPVVSKGWDGFRCVSQVF | -1.25 ± 2.4 |

| Substance | amyloid nucleation score |
| --- | --- |
| LSWFPA | 0.179 ± 0.27 |
| RFIYE | -0.543 ± 0.82 |
| YFHIESGLYYTWFMLYGPGR | 0.154 ± 0.61 |
| THLGGRRFHFSELRTRSSRG | -0.023 ± 0.49 |
| EVGRSCWLGSL | -0.344 ± 0.68 |
| TGMWPFNRRCITIRTVSRNL | 0.467 ± 0.93 |
| WHLWIVTTVTHMGSNNFLG | inactive |
| HVGHCLLLKFQSIWDFWCVC | 0.237 ± 0.69 |
| KWGVCVLTHLGRYWLLLGCG | -0.145 ± 0.66 |
| ARWGFTWVKA | 0.372 ± 1.4 |
| RRVLSRGSAVSWALSSGGD | -0.586 ± 0.46 |
| RISYTDCMVEQLHPNQLWQN | -0.069 ± 0.52 |
| VTRLLTLPWHCRRIYLVNLY | -0.09 ± 0.97 |
| SRGFKPMPGQYFCKG | 0.165 ± 0.26 |
| GAIIFLSCGWSKCFCTLWVI | -0.381 ± 0.38 |
| SYYNSVWTRYECAVVWT | 0.413 ± 1.1 |
| NRTWGYLSCALRNPSMTT | -0.305 ± 0.47 |
| TNFCGVNPGRIIRLWEDRSW | -0.762 ± 0.45 |
| SYWKNTVSCYVFFGMSRSRT | -0.634 ± 1.4 |
| QCKRFCCIWVCNADFVAGAW | 7.745 ± 0.045 |
| NMSGMVLGLVLTATWSFMSV | 0.588 ± 0.45 |
| IISMLFAFIGQSIIVQVVRC | 0.316 ± 0.26 |
| LRCCRVN | -0.474 ± 0.42 |
| IRVTAEICYLLKHTVMGRMR | 0.523 ± 0.34 |
| SCPRVTIFCCSGILGREWGK | 7.189 ± 0.045 |

| Substance | amyloid nucleation score |
| --- | --- |
| DFFRFC | inactive |
| SCTGCLFDTELRWISWVGLF | 0.074 ± 0.39 |
| QMGIMFALILQMYFSKFQDW | -0.182 ± 0.21 |
| HRDNH | -0.253 ± 0.35 |
| EALCHMWQYSGCP | 0.324 ± 0.66 |
| SSPVRGASKSSRGSTNVHAN | 0.29 ± 1.1 |
| FPENGLRSFSCPLVH | 0.382 ± 0.66 |
| KGTAPGNSGGERVVMNSHDL | 2.61 ± 0.22 |
| TDIIFIVRYSVVLVSLCSKC | -0.343 ± 0.69 |
| NSVAGSYGVWQWGDSRSLPP | 0.262 ± 0.43 |
| YVQLI | -0.256 ± 0.39 |
| CQYMFHIWQLIANHVI | 0.799 ± 0.43 |
| DHPCTTWVLPSYGPEDPLPC | 0.175 ± 0.35 |
| PTRPMTTELRRKVRRPALDG | -0.139 ± 0.62 |
| SETFEHRLRD | -0.437 ± 0.28 |
| LALMFFNLKSCIFMSMWLFT | 1.65 ± 0.57 |
| FMMSNWTNLNSWKTL | -0.122 ± 0.23 |
| LCLVFVNLVLQRYGIASWYT | 0.531 ± 0.3 |
| SCKVVILLPSVVKACLTVLP | 0.474 ± 0.95 |
| GCRTLHGGAVDKLYTWCHLA | 0.504 ± 0.92 |
| YYDTEGIHHSSIQRCQIRAG | 1.16 ± 0.58 |
| SFAVHVGVANSSGSCLMLGG | 0.277 ± 0.3 |
| GSDWTRMMNVLAGGGGVGSE | -0.484 ± 0.58 |
| GFFHGHIGLQHMCELQCCSG | inactive |
| PYCFYPRCC | 0.015 ± 0.85 |

| Substance | amyloid nucleation score |
| --- | --- |
| GFTGFNRIGVLVGWKCN | 0.763 ± 0.92 |
| VVIESYC | 0.593 ± 0.36 |
| TNFLKSFHV | -1.95 ± 1.8 |
| RQNGRKDPGNVKRGITCR | 0.066 ± 0.38 |
| RRPENKCYHPLVCDFVAVWF | 0.476 ± 1.1 |
| VLRWLRKRSFSI | -0.076 ± 0.6 |
| VNLRCRSTLEGSN | -0.077 ± 0.31 |
| RLRDTNVYTTQFFVFYLMNW | 6.677 ± 0.051 |
| GGTWPYTAVRWVIWRLWGEG | 0.129 ± 0.64 |
| PTRDCRVNKGSLMWTP | -0.213 ± 0.59 |
| VGLNMLKNFNPDLSAKDITH | -0.176 ± 1.1 |
| VLLDGAKMSESAEGGISALW | -0.161 ± 0.46 |
| FIELMRGDDLMHRGTLYVLR | inactive |
| MTTRIFSLKIA | 0.066 ± 0.81 |
| AESSPSVG | 0.271 ± 0.57 |
| HRRSLRVGLSDIHLLAACAE | -0.897 ± 1.6 |
| RWCMCVENRGMLVWGWNGFV | -0.245 ± 0.53 |
| LLYISSTVM | 1.07 ± 0.38 |
| YKNVCSDSVTLRKPGRVVLL | -0.278 ± 0.67 |
| YRRDYGPKSVDWRPYVVEVR | 0.359 ± 0.64 |
| ITGGVVWEHS | 0.358 ± 1 |
| LCKPCLGY | 0.639 ± 0.24 |
| VSSLWFKDYQYVFDDCYAKP | -0.258 ± 0.56 |
| SNLRSVMKRNYTVRLFCVG | inactive |
| RVIWEGNAVQTSAWGSADPK | -0.264 ± 0.64 |

| Substance | amyloid nucleation score |
| --- | --- |
| TYRFGCTLPLLRMCFIP | 0.435 ± 0.71 |
| RFMSTSLFLMVSNELLSPLM | 1.27 ± 0.16 |
| GFGPDQFITESDSFTSAFVS | 0.125 ± 0.55 |
| NSNMGCSVI | -0.596 ± 1 |
| CMDRSLMVNNTRPYGCLLEY | 6 ± 0.061 |
| DGHFVALSVLVCTMRC | 1.01 ± 0.65 |
| WLVCNEGSIMDLASGLGLIR | 0.561 ± 0.66 |
| FRMCCNYYICHLDGVILIG | 1.65 ± 0.26 |
| FICVMTRSGQDSSGMLLREG | 0.105 ± 0.2 |
| CEAFADTSSSYRDFYLQHQL | -1.44 ± 1.2 |
| RSYLCDREYCVFGFCLGIYS | 3.44 ± 0.15 |
| CPWRNRII | 0.684 ± 0.6 |
| LWSVKEGWGRPEAGHRQLWG | -0.413 ± 0.52 |
| FPESNKLMV | 1.06 ± 0.65 |
| IRLNSFTIESKRMYGRDSDV | 3.38 ± 0.12 |
| GLMSLYRQSSSLNRKAGWLT | 0.46 ± 0.64 |
| KSHIIFSIWQRLFGGHRISK | 0.413 ± 0.58 |
| AIIDMDMSFRSGGCTNGVDV | 1.06 ± 0.32 |
| SACNYVRRNVAHVRLLSL | 0.564 ± 0.53 |
| PFVARQHMNPFTVVGTNLCH | -0.376 ± 1.9 |
| LSVAHDGSLWVLFRKKPFGL | -0.106 ± 0.57 |
| NLTGGCLGVRWDMVECAWYY | 3.77 ± 0.068 |
| VSTSLGHLVDWGKSM | inactive |
| HRCGLPASFIHHFVCDRAVG | -0.686 ± 1.4 |
| VIVVVPLFGGRLCRVVRHR | 0.278 ± 0.62 |

| Substance | amyloid nucleation score |
| --- | --- |
| GDNVFFMLERALFVVRNRRV | -0.386 ± 0.86 |
| IRVFLLSCQTEKLGSVGVRS | -0.007 ± 0.41 |
| THQGWYSQNEHERRWIVHSF | 0.028 ± 0.58 |
| SRFMGTNN | 0.102 ± 0.84 |
| QFFLNTRLSLFALYL | 5.35 ± 0.059 |
| CDLFDFCISSKCRFKFLGRM | -0.131 ± 0.9 |
| LTGASSNTSVLVNWGVASYC | 1.13 ± 0.62 |
| LMRYALSIPRRAYVVRRLVM | 0.444 ± 1.2 |
| DFYTVLEKYVM | -0.157 ± 0.7 |
| IAVNSYASVDTYTSLLIRWL | 0.993 ± 0.36 |
| LFVLKTWLRNSDWFRYDESQ | -0.094 ± 0.68 |
| SFVNTNHRMRRCYTTENNPS | -0.796 ± 0.68 |
| LGLMTFFVWFNWG | -1.43 ± 1 |
| RYISTLYEMNLKYVNVVQFH | 6.416 ± 0.045 |
| LWTLVQTASSTWALLTGTTN | -0.066 ± 0.65 |
| MLDFTIQGLKSCWISVSLFF | inactive |
| DSRLGLMWMYEPIIRDGKWF | 0.802 ± 0.9 |
| RGGNLSRAFNYVRYIITHKN | 0.145 ± 0.46 |
| NTLYVGWCMGFV | -0.354 ± 0.3 |
